# Laboratory results taken from patent US20180079802A1 (VANDERBILT UNIVERSITY, published 2018).
# Tests used:
# CHIKV p62-E1 = CHIKV p62-E1 (Chikungunya virus); experiment: SPR (Biacore T100), IgG captured by anti-human IgG, p62-E1 injected
# [1] = molecular target: CHIKV strain LR2006 OPY1 (LR) (ECSA genotype) (Chikungunya virus strain LR2006 OPY1); experiment: cell-based or functional assay
# [2] = molecular target: CHIKV strain RSU1 (Asian genotype) (Chikungunya virus strain RSU1); experiment: cell-based or functional assay
# [3] = molecular target: CHIKV strain NI 64 IbH 35 (West African genotype) (Chikungunya virus strain NI 64 IbH 35); experiment: cell-based or functional assay
# [4] = molecular target: CHIKV strain 99659 (Asian genotype, 2014 Caribbean) (Chikungunya virus strain 99659); experiment: cell-based or functional assay
Binder,koff (CHIKV p62-E1) [s⁻¹],t1/2 (CHIKV p62-E1) [min],"Neutralization (FRNT), EC50 [1] [ng/mL]","Neutralization (FRNT), EC50 [2] [ng/mL]","Neutralization (FRNT), EC50 [3] [ng/mL]","Neutralization (FRNT), EC50 [4] [ng/mL]",Kd (CHIKV p62-E1) [nM],kon (CHIKV p62-E1) [M⁻¹ s⁻¹]
"3E23 (antibody, V domains shown) VH: QVQLVQSGPGLVKPSDTLSLTCSVSSDALRSRSYYWGWVRQPPGKGLEWIGTVSYSGGTYYNPSLQSRVTVSVDTSKNHFSLRLNSVTAADAAVYYCARSYFYDGSGYYYLSYFDSWGQGTLVTVSS VL: QAVVTQEPSLTVSPGGTVTLTCASSTGAVTSGHYPNWFQQKPGQPPRALIYSTDNKHSWTPARFSGSLLGVKAALTLSDVQPEDEADYYCLLHFGGVVVFGGGTKLTVL",0.000267,43,,,,,,
"2B4 (antibody, V domains shown) VH: QVQLVQSGSELKKPGASVKVSCKASGYSFTSYSINWVRQAPGQGPEWMGWIDTNTGNPTYAQDFAGRFVFSLDTSVTTAYLQISSLKAGDTAVYYCATYYVDLWGSYRQDYYGMDVWGH VL: QSVLTQPPSASGTPGQRVTISCSGGSSNIGSNPVNWYQMVPGTAPKLLLYTNNQRPSGVPDRFSGSKSGTSASLAINGLQSEDEADYYCAVWDDSLSGRWVFGGGTKVTVL",,,5.6,6.5,3.2,7,,
"4J21 (antibody, V domains shown) VH: QVQLVQSGSELKKPGASVKVSCKASGYSFTSYSINWVRQAPGQGPEWMGWIDTNTGNPTYAQDFAGRFVFSLDTSVTTAYLQISSLKAGDTAVYYCATYYVDLWGSYRQDYYGMDVWGHGTLVTVSS VL: QSVVTQPPSVSGTPGQGVTISCSGGSSNIGSNPVNWYQMVPGTAPKLLLYTNNQRPSGVPDRFSGSKSGTSASLAINGLQSEDEADYYCAVWDDSLSGRWVFGGGTKLTVL",6.2e-05,186,7.4,7.7,5.2,7.2,0.54,119000
"2C2 (antibody, V domains shown) VH: QVQLVQSGGGLVQPGRSLTLSCAASGFTFDVYAMHWVRQAPGKGLEWVAGISWNSGSVGYADSMKGRFTISRDNAKNSLYLQINSLRAEDTALYYCAKAFWFGELSGYGMDVWGQGTLVTVSS VL: QAVVTQPPSASGFPGQSVTISCTGTSSDVGSYNYVSWYQQHPGKAPKLIIYAVTRRPSGVPERFSGSKSGNTASLTVSGLQAEDEADYYCTSYAGNNKDVFGTGTKVTVL",0.000608,19,> 10000,> 10000,> 10000,,4.59,154000
"2D12 (antibody, V domains shown) VH: QVQLVQSGAEVKKPGASVKVSCKASGYSFNIYGISWVRQAPGQGLEWMGWISAYNGNTNYAQKLQGRVTMTTDTSTSTAYMELRSLRSDDTAVYYCARPLWGEFYYDIWGQGTLVTVSS VL: QAVVTQSPGTLSLSPGERATLSCRASQSVSSGYSAWYQQKPGQAPRLLIYGASKRAAGIPDRFSGSGSGTDFTLTISRLEPEDFAVYYCQLFATSPPPFGQGTRLEIK",~0.00086,13,,,,,0.49,1.75e+06
"4J14 (antibody, V domains shown) VH: QVQLVQSGAEVKKPGSSVKVSCKASGGTSSTYAISWVRQAPGQGLEWMGGSIPVFATVNYAQKFQGRLTITADESTSTVYMELSSLRSEDTAVYFCASPYCSSMNCYTTFYYFDFWGQGTLVTVSS VL: QAVVTQPASVFGFPGQSITISCTGTSSDFGTYNYVSWYQQHPGQAPKLMIFDVSNRPSGVSNRFSGSKSGNTASLTISGLQAEDEASYYCSSYTSGSTLYGGGTKLTVL",0.00153,8,,,,,9.94,161000
"8G18 (antibody, V domains shown) VH: QVQLVQSGAQVKKPGSSVKVSCKPSGGTFNNNGISWVRQAPGQGLEWMGGIVPNFGTPTYGQDFQGRVTITADESTSTVFLELTRLRSDDTAVYFCARGRTAVTPMQLGLQFYFDFWGRGTLVTVSS VL: QTVVTQEPSLTVSPGGTVTLTCSANSGAVTSDYYPNWFQQKPGQAPRALIYSASNKFSWTPARFSGSLLGGKAALTLSGAQPEDEAEYYCLVYSGDGVVFGGGTKLTV",0.000188,62,,,,,0.48,390000
"3A2 (antibody, V domains shown) VH: QVQLVQSGGGVVQPGRSLRLSCAASGFTFSNYVMEWVRQAPGKGLEWVAVISYDGSNKYYADSVKGRFTISRDNSKNTLYLQMNSLRAEDTAVYYCARSEWESSYGSGNYYTDYFYYYAMDVWGPGTLVTVSS VL: QAVVTQSPLSLPVTPGEPASISCRSNQSLLRGIRYNYLDWYLQKPGQSPQLLIYLGSNRASGVPDRFSGSGSATDFTLKISRVEAEDVGVYYCMQALQTPTTFGQGTRLEIK",0.00101,11,,,,,4.78,212000
"5O14 (antibody, V domains shown) VH: QVQLVQSGGRVVQAGRSLRLSCAASGFTFSMYGVHWVRQAPGKGLEWVAVIWNDGSKEYYGDSVKGRFTISRDNSRNTLYLQMNSLRVDDTAVYFCARDGIPDPERGDYGGLDYWGQGTLVTVSS VL: QTVVTQFPSSPFASVGDGVTITCRARQSISSYVNWYQQKPGKAPKLLIYATSSLQSGVPSRFSGSGYGTDFTLTISGLQPEDFATYYCQQSYSFPRTFGQGTKVEIK",0.000911,13,12.1,17.3,6.7,6.2,1.15,790000
"1L1 (antibody, V domains shown) VH: QVQLVQSGPTLVKPTQTLTLTCTFSGFSLSISGVGVGWIRQPPGKALEWLALIYWDDDKRYSPSLKSRLTITKDTSENQVVLTMTNMDPVDTATYYCAHSMTKGGAIYGQAYFEYWGQGTLV VL: PSPALEPDSDVGGYNYVSWYQQHPGKAPKLIIYDVTDRPSGVSNRFSASKSANTASLTISGLQAEDEADYYCSSYTSSST",0.000273,42,,,,,3.79,88000
"3B4 (antibody, V domains shown) VH: QVQLEESGPTLVKPTQTLTLTCSFSGFSLTTTGVTVGWIRQPPGKALEWLALIYWDDDKRYSPSLKSRLTITKDTSKNQVVLTMTNMDPVDTATYYCAHSTGYYDSSGYRGALDAFAVWGQGTLVTVSS VL: QIVVTQFPDSPAVSLGERATINCKSSQSVLYHSNNKNYLAWYQQKPGQPPNLLIYWASARQSGVPDRFSGSGSGTDFTLTISSLQAEDVAVYYCQQYYSTPYTFGQGTKLEIK",0.000156,74,,,,,0.54,291000
"4N12 (antibody, V domains shown) VH: QVQLVQSGAEVKKPGASVKVSCKVSGYILSKLSVHWVRQAPGKGLEWMGGSEREDGETVYAQKFQGRISLTEDTSIETAYMELSSLSSEDTAVYYCATGGFWSMIGGNGVDYWGQGTLVTVSS VL: QAVVTQSPSSLPASVGDRVTITCRASQDIRNNLGWYQQKPGKAPERLIYGTSNLQSGVPSRFSGSGSGTEFTLTISSLQPEDFATYYCLQHNSYPPTFGRGTKVEIK",0.000118,98,,,,,0.95,124000
